# Paper PMC7089426, “C8J_1298, a bifunctional thiol oxidoreductase of Campylobacter jejuni, affects Dsb (disulfide bond) network functioning” (PLoS ONE, 2020)
# Molecular target: the molecule itself
# Experiment: cross-linking; glutaraldehyde (0.0001-0.02% v/v), C8J_1298 at 1.8 mg/ml, room temperature, 20 min, 0.05 M bicine-NaOH pH 8.5, 0.1 mM DTT, 0.4 M NaCl; quenched with ethanolamine-HCl pH 8.0
protein,measurement,value
"C8J_1298, periplasmic dimeric thiol oxidoreductase of Campylobacter jejuni 81116 (recombinant, lacking the signal sequence, C-terminal His-Tag) (enzyme) ASNSEISDFYSKSIKAQFPNATVSVSNRQKVGNTGFESVIVSVELNGQKQENILFTKDSLITPDLIDLKTGISYAQEYEMKKFQEARENFTKNAKAVAQKETMVIALGDKNKPAIYVFSDPECPYCREHLAQIDDELKNYQVNYILTPVHGKSAFEKSALIYKEAKKAKNDKEKIAILNKYYDANIKNYPKVSDAELKEVFSLYEKYRSLGLSATPTIIK",stoichiometry N,2
